According to article PMC9482650, “Quantitative fragmentomics allow affinity mapping of interactomes” (Nature Communications, 2022):

T1: NHERF3_3, Q5T2W1
T1 sequence (Q5T2W1 238-333, limits assumed, looked up): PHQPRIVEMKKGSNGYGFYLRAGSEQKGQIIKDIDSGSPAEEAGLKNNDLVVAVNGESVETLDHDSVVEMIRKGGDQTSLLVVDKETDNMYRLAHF

T2: MPP6, Q9NZW5
T2 sequence (Q9NZW5 125-219, limits assumed, looked up): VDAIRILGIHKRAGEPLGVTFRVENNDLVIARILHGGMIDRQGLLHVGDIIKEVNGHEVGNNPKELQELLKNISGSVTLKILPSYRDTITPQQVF

T3: APBA1_2, Q02410
T3 sequence (Q02410 742-832, limits assumed, looked up): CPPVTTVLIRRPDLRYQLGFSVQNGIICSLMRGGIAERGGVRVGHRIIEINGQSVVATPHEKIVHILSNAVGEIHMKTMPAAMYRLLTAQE

T4: SNTG2, Q9NY99
T4 sequence (Q9NY99 68-166, limits assumed, looked up): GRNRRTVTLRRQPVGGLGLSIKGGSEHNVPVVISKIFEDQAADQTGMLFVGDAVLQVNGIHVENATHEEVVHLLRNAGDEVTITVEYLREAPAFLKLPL

T5: CARD11, Q9BXL7
T5 sequence (Q9BXL7 662-765, limits assumed, looked up): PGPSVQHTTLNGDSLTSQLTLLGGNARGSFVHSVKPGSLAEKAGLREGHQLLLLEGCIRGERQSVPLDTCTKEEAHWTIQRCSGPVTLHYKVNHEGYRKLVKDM

T6: PARD3B_1, Q8TEW8
T6 sequence (Q8TEW8 196-299, limits assumed, looked up): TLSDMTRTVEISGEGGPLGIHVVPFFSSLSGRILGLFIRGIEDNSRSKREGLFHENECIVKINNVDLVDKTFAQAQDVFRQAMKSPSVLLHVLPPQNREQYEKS

T7: LRRC7, Q96NW7
T7 sequence (Q96NW7 1440-1537, limits assumed, looked up): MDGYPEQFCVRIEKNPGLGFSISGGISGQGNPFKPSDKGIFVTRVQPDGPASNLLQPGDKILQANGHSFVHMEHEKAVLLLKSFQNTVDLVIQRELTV

T8: NHERF3_1, Q5T2W1
T8 sequence (Q5T2W1 4-100, limits assumed, looked up): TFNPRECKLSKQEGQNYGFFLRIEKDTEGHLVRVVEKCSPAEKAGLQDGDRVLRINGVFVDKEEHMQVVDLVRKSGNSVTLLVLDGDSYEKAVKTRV

T9: SNTG1, Q9NSN8
T9 sequence (Q9NSN8 52-150, limits assumed, looked up): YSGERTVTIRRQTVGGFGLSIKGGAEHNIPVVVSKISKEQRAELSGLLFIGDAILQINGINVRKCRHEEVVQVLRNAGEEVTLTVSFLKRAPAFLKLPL

B1: CSPG4, Q6UVK1 (peptide)
chain: PALKNGQYWV

The binders below were run against TJP1_3, Q07157 (assay: holdup assay). Settings: plain residues with an end cap or a label only (N-terminal biotin on a linker: ado-ado).
Design: key: below the threshold = too weak to quantify, mostly under pKd 3.1 to 4

Chain of TJP1_3, Q07157 (Q07157 416-512): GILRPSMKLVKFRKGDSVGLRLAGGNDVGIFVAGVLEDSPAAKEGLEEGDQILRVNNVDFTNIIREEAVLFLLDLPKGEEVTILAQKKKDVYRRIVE

pKd	Binder
3.95	B1

These binders were tested against T1, NHERF3_3, Q5T2W1 (assay: holdup assay). Settings: plain residues with an end cap or a label only (N-terminal biotin on a linker: ado-ado).
Design: key: below the threshold = too weak to quantify, mostly under pKd 3.1 to 4

pKd	Binder
below the threshold	B1

The binders below were run against PICK1, Q9NRD5 (assay: holdup assay). Settings: plain residues with an end cap or a label only (N-terminal biotin on a linker: ado-ado).
Design: key: below the threshold = too weak to quantify, mostly under pKd 3.1 to 4

Chain of PICK1, Q9NRD5 (Q9NRD5 17-115): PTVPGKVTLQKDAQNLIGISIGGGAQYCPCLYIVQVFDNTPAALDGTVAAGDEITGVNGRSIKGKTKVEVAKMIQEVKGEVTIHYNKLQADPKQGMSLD

pKd	Binder
below the threshold	B1

These binders were tested against T2, MPP6, Q9NZW5 (assay: holdup assay). Settings: plain residues with an end cap or a label only (N-terminal biotin on a linker: ado-ado).
Design: key: below the threshold = too weak to quantify, mostly under pKd 3.1 to 4

pKd	Binder
3.83	B1

What follows are binders tested against T3, APBA1_2, Q02410 (assay: holdup assay). Settings: plain residues with an end cap or a label only (N-terminal biotin on a linker: ado-ado).
Design: key: below the threshold = too weak to quantify, mostly under pKd 3.1 to 4

pKd	Binder
4.67	B1

These binders were tested against IL16_1, Q14005 (assay: holdup assay). Settings: plain residues with an end cap or a label only (N-terminal biotin on a linker: ado-ado).
Design: key: below the threshold = too weak to quantify, mostly under pKd 3.1 to 4

Chain of IL16_1, Q14005 (Q14005 210-306): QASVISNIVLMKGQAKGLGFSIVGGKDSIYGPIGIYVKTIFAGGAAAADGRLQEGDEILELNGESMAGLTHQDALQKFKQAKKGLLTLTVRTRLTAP

pKd	Binder
3.79	B1

What follows are binders tested against LDB3, O75112 (assay: holdup assay). Settings: plain residues with an end cap or a label only (N-terminal biotin on a linker: ado-ado).
Design: key: below the threshold = too weak to quantify, mostly under pKd 3.1 to 4

Chain of LDB3, O75112 (O75112 1-94): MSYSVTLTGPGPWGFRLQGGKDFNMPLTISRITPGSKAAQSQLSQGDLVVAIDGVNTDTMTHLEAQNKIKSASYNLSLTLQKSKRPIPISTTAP

pKd	Binder
below the threshold	B1

The binders below were run against GRIP2_6, Q9C0E4 (assay: holdup assay). Settings: plain residues with an end cap or a label only (N-terminal biotin on a linker: ado-ado).
Design: key: below the threshold = too weak to quantify, mostly under pKd 3.1 to 4

Chain of GRIP2_6, Q9C0E4 (Q9C0E4 648-740): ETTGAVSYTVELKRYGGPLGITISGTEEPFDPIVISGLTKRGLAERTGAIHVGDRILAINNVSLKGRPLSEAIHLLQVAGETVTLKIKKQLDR

pKd	Binder
3.58	B1

These binders were tested against LNX1_1, Q8TBB1 (assay: holdup assay). Settings: plain residues with an end cap or a label only (N-terminal biotin on a linker: ado-ado).
Design: key: below the threshold = too weak to quantify, mostly under pKd 3.1 to 4

Chain of LNX1_1, Q8TBB1 (Q8TBB1 261-371): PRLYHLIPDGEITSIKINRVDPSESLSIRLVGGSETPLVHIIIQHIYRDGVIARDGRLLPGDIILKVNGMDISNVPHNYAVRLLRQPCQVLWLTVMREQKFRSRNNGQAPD

pKd	Binder
below the threshold	B1

Each binder was assayed against T4, SNTG2, Q9NY99 (assay: holdup assay). Settings: plain residues with an end cap or a label only (N-terminal biotin on a linker: ado-ado).
Design: key: below the threshold = too weak to quantify, mostly under pKd 3.1 to 4

pKd	Binder
below the threshold	B1

These binders were tested against T5, CARD11, Q9BXL7 (assay: holdup assay). Settings: plain residues with an end cap or a label only (N-terminal biotin on a linker: ado-ado).
Design: key: below the threshold = too weak to quantify, mostly under pKd 3.1 to 4

pKd	Binder
below the threshold	B1

What follows are binders tested against DLG5_1, Q8TDM6 (assay: holdup assay). Settings: plain residues with an end cap or a label only (N-terminal biotin on a linker: ado-ado).
Design: key: below the threshold = too weak to quantify, mostly under pKd 3.1 to 4

Chain of DLG5_1, Q8TDM6 (Q8TDM6 617-713): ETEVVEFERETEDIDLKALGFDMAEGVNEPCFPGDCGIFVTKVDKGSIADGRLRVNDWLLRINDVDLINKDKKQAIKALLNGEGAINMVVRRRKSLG

pKd	Binder
below the threshold	B1

Each binder was assayed against T6, PARD3B_1, Q8TEW8 (assay: holdup assay). Settings: plain residues with an end cap or a label only (N-terminal biotin on a linker: ado-ado).
Design: key: below the threshold = too weak to quantify, mostly under pKd 3.1 to 4

pKd	Binder
3.71	B1

What follows are binders tested against AHNAK1, Q09666 (assay: holdup assay). Settings: plain residues with an end cap or a label only (N-terminal biotin on a linker: ado-ado).
Design: key: below the threshold = too weak to quantify, mostly under pKd 3.1 to 4

Chain of AHNAK1, Q09666 (Q09666 4-100): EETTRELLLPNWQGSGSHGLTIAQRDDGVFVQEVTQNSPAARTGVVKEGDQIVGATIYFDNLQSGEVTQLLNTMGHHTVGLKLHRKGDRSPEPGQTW

pKd	Binder
below the threshold	B1

Each binder was assayed against PTPN3, P26045 (assay: holdup assay). Settings: plain residues with an end cap or a label only (N-terminal biotin on a linker: ado-ado).
Design: key: below the threshold = too weak to quantify, mostly under pKd 3.1 to 4

Chain of PTPN3, P26045 (P26045 505-587): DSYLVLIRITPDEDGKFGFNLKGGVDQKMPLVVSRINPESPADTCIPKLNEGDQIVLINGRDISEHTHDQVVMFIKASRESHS

pKd	Binder
4.1	B1

Each binder was assayed against DLG1_3, Q12959 (assay: holdup assay). Settings: plain residues with an end cap or a label only (N-terminal biotin on a linker: ado-ado).
Design: key: below the threshold = too weak to quantify, mostly under pKd 3.1 to 4

Chain of DLG1_3, Q12959 (Q12959 457-571): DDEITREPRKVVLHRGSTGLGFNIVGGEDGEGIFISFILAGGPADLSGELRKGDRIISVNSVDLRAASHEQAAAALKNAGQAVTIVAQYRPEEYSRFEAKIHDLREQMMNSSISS

pKd	Binder
below the threshold	B1

What follows are binders tested against MAGI2_3, Q86UL8 (assay: holdup assay). Settings: plain residues with an end cap or a label only (N-terminal biotin on a linker: ado-ado).
Design: key: below the threshold = too weak to quantify, mostly under pKd 3.1 to 4

Chain of MAGI2_3, Q86UL8 (Q86UL8 600-682): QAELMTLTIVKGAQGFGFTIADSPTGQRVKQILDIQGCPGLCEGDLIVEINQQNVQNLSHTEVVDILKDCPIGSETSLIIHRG

pKd	Binder
below the threshold	B1

The binders below were run against SCRIB_1, Q14160 (assay: holdup assay). Settings: plain residues with an end cap or a label only (N-terminal biotin on a linker: ado-ado).
Design: key: below the threshold = too weak to quantify, mostly under pKd 3.1 to 4

Chain of SCRIB_1, Q14160 (Q14160 718-814): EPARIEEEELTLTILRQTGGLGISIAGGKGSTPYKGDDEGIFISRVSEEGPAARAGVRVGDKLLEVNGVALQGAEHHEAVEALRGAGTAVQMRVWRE

pKd	Binder
below the threshold	B1

The binders below were run against SCRIB_3, Q14160 (assay: holdup assay). Settings: plain residues with an end cap or a label only (N-terminal biotin on a linker: ado-ado).
Design: key: below the threshold = too weak to quantify, mostly under pKd 3.1 to 4

Chain of SCRIB_3, Q14160 (Q14160 999-1103): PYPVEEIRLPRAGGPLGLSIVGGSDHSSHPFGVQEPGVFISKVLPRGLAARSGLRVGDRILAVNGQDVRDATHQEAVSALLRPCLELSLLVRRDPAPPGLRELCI

pKd	Binder
3.58	B1

What follows are binders tested against T7, LRRC7, Q96NW7 (assay: holdup assay). Settings: plain residues with an end cap or a label only (N-terminal biotin on a linker: ado-ado).
Design: key: below the threshold = too weak to quantify, mostly under pKd 3.1 to 4

pKd	Binder
3.7	B1

What follows are binders tested against T8, NHERF3_1, Q5T2W1 (assay: holdup assay). Settings: plain residues with an end cap or a label only (N-terminal biotin on a linker: ado-ado).
Design: key: below the threshold = too weak to quantify, mostly under pKd 3.1 to 4

pKd	Binder
below the threshold	B1

Each binder was assayed against NHERF4_4, Q86UT5 (assay: holdup assay). Settings: plain residues with an end cap or a label only (N-terminal biotin on a linker: ado-ado).
Design: key: below the threshold = too weak to quantify, mostly under pKd 3.1 to 4

Chain of NHERF4_4, Q86UT5 (Q86UT5 464-550): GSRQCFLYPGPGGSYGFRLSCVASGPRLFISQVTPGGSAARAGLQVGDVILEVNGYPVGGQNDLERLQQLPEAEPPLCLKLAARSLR

pKd	Binder
4.05	B1

Each binder was assayed against GRASP, Q7Z6J2 (assay: holdup assay). Settings: plain residues with an end cap or a label only (N-terminal biotin on a linker: ado-ado).
Design: key: below the threshold = too weak to quantify, mostly under pKd 3.1 to 4

Chain of GRASP, Q7Z6J2 (Q7Z6J2 96-193): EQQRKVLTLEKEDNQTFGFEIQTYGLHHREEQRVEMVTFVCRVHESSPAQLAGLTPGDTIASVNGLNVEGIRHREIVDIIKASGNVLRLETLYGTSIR

pKd	Binder
below the threshold	B1

Each binder was assayed against LIMK2, P53671 (assay: holdup assay). Settings: plain residues with an end cap or a label only (N-terminal biotin on a linker: ado-ado).
Design: key: below the threshold = too weak to quantify, mostly under pKd 3.1 to 4

Chain of LIMK2, P53671 (P53671 143-248): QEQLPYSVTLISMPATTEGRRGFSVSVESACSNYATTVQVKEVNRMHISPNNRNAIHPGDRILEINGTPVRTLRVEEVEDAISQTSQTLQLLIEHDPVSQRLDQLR

pKd	Binder
below the threshold	B1

The binders below were run against Inadl_3, Q8NI35 (assay: holdup assay). Settings: plain residues with an end cap or a label only (N-terminal biotin on a linker: ado-ado).
Design: key: below the threshold = too weak to quantify, mostly under pKd 3.1 to 4

Chain of Inadl_3, Q8NI35 (Q8NI35 359-469): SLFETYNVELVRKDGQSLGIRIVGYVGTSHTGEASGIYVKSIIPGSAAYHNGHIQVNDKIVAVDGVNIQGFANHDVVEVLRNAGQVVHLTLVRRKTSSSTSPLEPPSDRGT

pKd	Binder
3.58	B1

These binders were tested against IL16_4, Q14005 (assay: holdup assay). Settings: plain residues with an end cap or a label only (N-terminal biotin on a linker: ado-ado).
Design: key: below the threshold = too weak to quantify, mostly under pKd 3.1 to 4

Chain of IL16_4, Q14005 (Q14005 1229-1329): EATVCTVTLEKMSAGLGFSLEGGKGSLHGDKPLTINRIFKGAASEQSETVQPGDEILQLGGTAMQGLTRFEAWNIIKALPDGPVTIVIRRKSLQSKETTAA

pKd	Binder
below the threshold	B1

What follows are binders tested against DLG2_2, Q15700 (assay: holdup assay). Settings: plain residues with an end cap or a label only (N-terminal biotin on a linker: ado-ado).
Design: key: below the threshold = too weak to quantify, mostly under pKd 3.1 to 4

Chain of DLG2_2, Q15700 (Q15700 189-283): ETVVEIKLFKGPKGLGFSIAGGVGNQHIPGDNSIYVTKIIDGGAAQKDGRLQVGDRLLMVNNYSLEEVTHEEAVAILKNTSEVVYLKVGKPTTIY

pKd	Binder
below the threshold	B1

The binders below were run against T9, SNTG1, Q9NSN8 (assay: holdup assay). Settings: plain residues with an end cap or a label only (N-terminal biotin on a linker: ado-ado).
Design: key: below the threshold = too weak to quantify, mostly under pKd 3.1 to 4

pKd	Binder
below the threshold	B1
